Assay results from IntAct's records for PubMed 10921873.

Experiments:
copb_yeast SEC26 [1] = target: copb_yeast SEC26 (UniProt P41810)
cope_yeast SEC28 [2] = target: cope_yeast SEC28 (UniProt P40509)
glo3_yeast GLO3 [3] = target: glo3_yeast GLO3 (UniProt P38682)
gcs1_yeast GCS1 [4] = target: gcs1_yeast GCS1 (UniProt P35197)
copb_yeast SEC26 [5] = target: copb_yeast SEC26 (UniProt P41810); remark: listed apart in the source
cope_yeast SEC28 [6] = target: cope_yeast SEC28 (UniProt P40509); remark: listed apart in the source
glo3_yeast GLO3 [7] = target: glo3_yeast GLO3 (UniProt P38682); remark: listed apart in the source
gcs1_yeast GCS1 [8] = target: gcs1_yeast GCS1 (UniProt P35197); remark: listed apart in the source

Measured: effect of a mutation on the interaction

ADP-ribosylation factor 1 (Homo sapiens), P84077 Q71L, sequence (P84077 whole entry Q71L): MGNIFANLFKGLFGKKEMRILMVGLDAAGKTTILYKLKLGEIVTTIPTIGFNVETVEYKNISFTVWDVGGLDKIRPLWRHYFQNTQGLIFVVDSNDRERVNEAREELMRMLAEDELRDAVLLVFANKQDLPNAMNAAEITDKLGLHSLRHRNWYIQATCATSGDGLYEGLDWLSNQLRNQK
copb_yeast SEC26, sequence (P41810 whole entry): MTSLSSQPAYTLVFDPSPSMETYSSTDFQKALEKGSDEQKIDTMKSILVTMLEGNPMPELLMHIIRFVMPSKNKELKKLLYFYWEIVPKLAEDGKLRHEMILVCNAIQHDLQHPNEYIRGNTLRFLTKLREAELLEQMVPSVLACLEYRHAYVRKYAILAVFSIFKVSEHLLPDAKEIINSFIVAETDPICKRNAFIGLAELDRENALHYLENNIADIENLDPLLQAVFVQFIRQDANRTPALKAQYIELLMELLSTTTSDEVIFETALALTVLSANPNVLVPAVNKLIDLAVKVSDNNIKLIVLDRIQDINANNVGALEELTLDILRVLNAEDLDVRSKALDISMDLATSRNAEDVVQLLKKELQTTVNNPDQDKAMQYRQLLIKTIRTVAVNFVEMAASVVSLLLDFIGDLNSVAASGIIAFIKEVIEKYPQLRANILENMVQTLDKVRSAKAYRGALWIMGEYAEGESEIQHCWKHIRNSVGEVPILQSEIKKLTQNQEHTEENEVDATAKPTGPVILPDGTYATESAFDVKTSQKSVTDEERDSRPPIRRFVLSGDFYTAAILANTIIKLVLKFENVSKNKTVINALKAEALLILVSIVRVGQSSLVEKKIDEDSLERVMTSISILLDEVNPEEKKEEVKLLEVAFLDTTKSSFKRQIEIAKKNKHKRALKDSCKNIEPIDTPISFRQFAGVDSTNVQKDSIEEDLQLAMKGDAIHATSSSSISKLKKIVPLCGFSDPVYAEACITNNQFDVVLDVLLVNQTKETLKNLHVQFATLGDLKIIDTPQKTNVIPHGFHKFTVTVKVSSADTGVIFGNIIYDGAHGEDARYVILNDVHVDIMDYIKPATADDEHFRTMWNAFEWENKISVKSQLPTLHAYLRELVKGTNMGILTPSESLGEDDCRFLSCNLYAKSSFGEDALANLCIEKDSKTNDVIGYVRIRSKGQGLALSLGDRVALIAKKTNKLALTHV
gcs1_yeast GCS1, sequence (P35197 whole entry): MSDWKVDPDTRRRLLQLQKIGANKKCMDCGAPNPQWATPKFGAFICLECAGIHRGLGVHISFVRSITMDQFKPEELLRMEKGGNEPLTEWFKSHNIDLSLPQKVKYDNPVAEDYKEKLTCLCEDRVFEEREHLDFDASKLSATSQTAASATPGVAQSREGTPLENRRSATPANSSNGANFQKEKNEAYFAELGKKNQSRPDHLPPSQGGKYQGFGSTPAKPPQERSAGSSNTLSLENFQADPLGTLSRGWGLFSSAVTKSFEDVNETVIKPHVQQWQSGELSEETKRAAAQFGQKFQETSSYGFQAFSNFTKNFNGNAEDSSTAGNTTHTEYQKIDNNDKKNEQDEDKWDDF
glo3_yeast GLO3, sequence (P38682 whole entry): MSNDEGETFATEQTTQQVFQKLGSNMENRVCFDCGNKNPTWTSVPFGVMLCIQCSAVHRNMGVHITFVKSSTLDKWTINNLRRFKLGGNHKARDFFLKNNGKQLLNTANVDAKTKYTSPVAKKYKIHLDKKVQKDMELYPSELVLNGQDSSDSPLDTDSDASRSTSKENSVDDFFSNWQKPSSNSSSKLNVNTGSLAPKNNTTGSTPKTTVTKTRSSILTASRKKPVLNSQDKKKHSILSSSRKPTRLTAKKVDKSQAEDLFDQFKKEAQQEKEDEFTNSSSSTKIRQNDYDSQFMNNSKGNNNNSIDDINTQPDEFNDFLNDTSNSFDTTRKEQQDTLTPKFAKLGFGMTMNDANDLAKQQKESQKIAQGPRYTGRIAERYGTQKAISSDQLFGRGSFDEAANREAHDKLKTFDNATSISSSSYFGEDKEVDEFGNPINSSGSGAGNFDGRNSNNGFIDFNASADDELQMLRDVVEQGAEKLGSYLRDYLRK
cope_yeast SEC28, sequence (P40509 whole entry): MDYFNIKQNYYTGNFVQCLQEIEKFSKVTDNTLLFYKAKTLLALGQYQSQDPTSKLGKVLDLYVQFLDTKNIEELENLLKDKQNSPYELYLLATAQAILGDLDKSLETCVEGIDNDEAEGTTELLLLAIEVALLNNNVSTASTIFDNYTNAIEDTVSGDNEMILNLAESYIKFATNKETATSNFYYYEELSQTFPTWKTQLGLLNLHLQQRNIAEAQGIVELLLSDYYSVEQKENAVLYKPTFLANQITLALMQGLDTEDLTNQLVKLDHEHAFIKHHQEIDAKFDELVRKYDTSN

ADP-ribosylation factor 1 (Homo sapiens), P84077 Q71L
increasing interaction: copb_yeast SEC26 [1] | cope_yeast SEC28 [2] | glo3_yeast GLO3 [3] | gcs1_yeast GCS1 [4]

ADP-ribosylation factor 1 (Homo sapiens), P84077 N126I
increasing interaction: copb_yeast SEC26 [5] | cope_yeast SEC28 [6] | glo3_yeast GLO3 [7] | gcs1_yeast GCS1 [8]
